Experimental data: US20240377414A1 (BELLYLABS, published 2024)

Assays:
[1] = molecular target: T1, canine relaxin (mature relaxin in pregnant dog serum) (dog, UniProt Q9TRM8 154-177; Q9TRM8 26-60); experiment: hybridoma screen for activity against relaxin-positive pregnant dog serum
T1 construct: mature; Endogenous relaxin in serum, plasma or whole blood of pregnant dogs; also called dog relaxin
Experimental: Monoclonal IgG antibodies were prepared by immunizing mice with preprorelaxin (Bioraytec Ltd., Zhuhai, China) using standard laboratory methods known in the art. Anti-preprorelaxin antibody expressing hybridomas were derived by fusing myeloma cells with splenocytes from the immunized mice. The antibodies produced by hybridoma clonal cell lines were initially screened for activity against relaxin-positive pregnant dog serum. Relaxin positivity of the serum was confirmed using the FASTest RELAXIN in vitro test (Diagnostik Megacor, Hörbranz, Austria). The serum contains mature relaxin as preprorelaxin is not present in serum, and so the selected antibodies are reactive against relaxin and not only preprorelaxin.

[2] = molecular target: T1, canine relaxin (mature relaxin in …); experiment: hybridoma screen against relaxin-positive dog serum

T1 sequence (Q9TRM8 154-177 limits assumed, chain 1 of 2): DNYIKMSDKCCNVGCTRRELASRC
T1 sequence (Q9TRM8 26-60 limits assumed, chain 2 of 2): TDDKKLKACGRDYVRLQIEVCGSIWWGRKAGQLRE

Row | Binder | binding result [1] | binding result [2]
1 | monoclonal antibody 2H7 (antibody, V domains shown, Mouse monoclonal IgG from hybridoma; Mostly used as capture antibody on the test line; gold-labelled as detection antibody in the pair 2F10-2H7; also called capture antibody; hybridoma CCTCC C2021209) VH: DVQLQESGPDLVKPSQSLSLTCTVTGYSITSGYSWHWIRQFPGNKLEWMGYIHYSGRTNYNPSLKSRISITRDTSKNQFFLQLNSVTTEDTATYYCARSMDYWGQGTSVSVSS VL: DIKMTQSPSSMYASLGERVTITCKASQDIKTYLNWYQQKPWKSPKTLIYYATSLADGVPSRFSGSGSGQDFSLTISSLESDDTATYFCLQHGESPPTFGGGTKLEIK | binds | 
2 | monoclonal antibody 9B8 (antibody, V domains shown, also called second detection antibody; hybridoma CCTCC C2021211) VH: EVKLEESGGGLVQPGGSMKLSCAASGFTFSDAWMDWVRRSPEKGLEWIAEIRSKAKNHITYYAESVKGRFTISRDDSKSSVYLQMNSLRTEDSGIYYCTGGFAYWGQGTLVTVSA VL: DAVMTQNPLSLPVSLGDQASISCRSSQSLEKSNGNTYLNWYLQKPGQSPQLLIYRVSNRFSGVPDRISGGGSGTDFTLKISRVEAEDLGVYFCVQVSHVPFTFGSGTKLEIK |  | binds
3 | monoclonal antibody 2A4 (antibody, V domains shown, also called first detection antibody; hybridoma CCTCC C2021210) VH: AVNLEESGGGLVLPGGSMKLSCTASGFTFSDAWMDWVRRSPEKGLEWLAEIRDETNNHITYYAESVKVRFIISRDDSKSSVYLQMNNLRPEDTGIYYCAAGFAYWGQGTLVTVSA VL: DAVMTQTPLSLSVSLGDQASISCRSSQSLEKSNGKTYLNWYLQKPGQSPQLLIYRVSNRFSGVLDRFSGSGSGTDFTLKISRVEAEDLGLYFCLQVSHVPFTFGSGTKLEIK |  | binds
